The results in this text go back to US20140072613A1 (published 2014).

Some targets named below: Met(Y1248H)(h) (human, UniProt P08581-2 974-1408, limits assumed); MINK(h) (human, UniProt Q8N4C8 1-320, limits assumed); mTOR(h) (human, UniProt P42345 1362-2549); mTOR/FKBP12(h) (human, UniProt P42345 1362-2549; P62942 1-108); PAK4(h) (human, UniProt O96013 1-591, limits assumed); PDGFRα(V561D)(h) (human, UniProt P16234 550-1089, limits assumed); Pim-1(h) (human, UniProt P11309 1-313); PKCα(h) (human, UniProt P17252 1-672); Ros(h) (human, UniProt P08922 1883-2347, limits assumed); BRK(h) (human, UniProt Q13882 1-451, limits assumed); SIK(h) (human, UniProt P57059 1-783, limits assumed); Snk(h) (human, UniProt Q9NYY3 1-685, limits assumed); CK1γ2(h) (human, UniProt P78368 1-415); Abl(h) (human, UniProt P00519 27-1130, limits assumed); FGFR4(h) (human, UniProt P22455 460-802, limits assumed).

Common to all, as to assay: cell-based or functional assay
In the next test the target is T1, GCK(h) (human, UniProt Q12851 1-820, limits assumed).
T1 sequence (looked up): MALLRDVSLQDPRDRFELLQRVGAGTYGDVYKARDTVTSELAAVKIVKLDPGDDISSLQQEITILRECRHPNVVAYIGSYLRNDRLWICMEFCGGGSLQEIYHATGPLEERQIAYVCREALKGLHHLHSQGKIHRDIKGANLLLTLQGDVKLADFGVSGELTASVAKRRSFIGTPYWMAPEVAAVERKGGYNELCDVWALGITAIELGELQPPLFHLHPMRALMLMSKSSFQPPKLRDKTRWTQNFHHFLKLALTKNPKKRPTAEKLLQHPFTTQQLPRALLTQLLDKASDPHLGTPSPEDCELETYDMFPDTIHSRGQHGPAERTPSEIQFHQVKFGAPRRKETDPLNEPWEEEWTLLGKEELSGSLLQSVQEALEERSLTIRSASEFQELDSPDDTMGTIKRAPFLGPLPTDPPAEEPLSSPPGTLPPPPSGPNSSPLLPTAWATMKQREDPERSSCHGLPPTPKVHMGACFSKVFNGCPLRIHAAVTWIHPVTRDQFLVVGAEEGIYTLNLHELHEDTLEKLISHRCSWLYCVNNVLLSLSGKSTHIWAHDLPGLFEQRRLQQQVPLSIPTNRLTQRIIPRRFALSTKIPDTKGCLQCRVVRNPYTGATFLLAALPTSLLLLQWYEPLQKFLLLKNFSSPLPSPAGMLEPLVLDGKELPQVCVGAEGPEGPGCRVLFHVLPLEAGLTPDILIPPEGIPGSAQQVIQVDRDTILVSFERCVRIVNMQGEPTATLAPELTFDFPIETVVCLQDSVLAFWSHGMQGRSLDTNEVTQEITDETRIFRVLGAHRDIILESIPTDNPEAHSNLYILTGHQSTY

The target of another test is T2, Axl(h) (human, UniProt P30530 473-894, limits assumed).
T2 sequence (looked up): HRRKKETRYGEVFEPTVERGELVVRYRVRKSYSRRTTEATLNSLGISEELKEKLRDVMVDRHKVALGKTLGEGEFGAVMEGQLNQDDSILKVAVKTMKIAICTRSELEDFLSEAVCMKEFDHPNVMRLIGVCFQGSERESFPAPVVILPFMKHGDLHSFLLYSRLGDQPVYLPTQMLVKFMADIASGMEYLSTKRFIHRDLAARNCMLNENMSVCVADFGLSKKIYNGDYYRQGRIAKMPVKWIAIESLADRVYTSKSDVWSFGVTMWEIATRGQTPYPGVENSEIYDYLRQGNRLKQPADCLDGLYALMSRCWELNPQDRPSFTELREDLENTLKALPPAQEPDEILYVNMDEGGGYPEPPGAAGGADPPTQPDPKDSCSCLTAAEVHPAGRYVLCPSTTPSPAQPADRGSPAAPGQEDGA

The next test addresses T3, Rse(h) (human, UniProt Q06418 451-890, limits assumed).
T3 sequence (looked up): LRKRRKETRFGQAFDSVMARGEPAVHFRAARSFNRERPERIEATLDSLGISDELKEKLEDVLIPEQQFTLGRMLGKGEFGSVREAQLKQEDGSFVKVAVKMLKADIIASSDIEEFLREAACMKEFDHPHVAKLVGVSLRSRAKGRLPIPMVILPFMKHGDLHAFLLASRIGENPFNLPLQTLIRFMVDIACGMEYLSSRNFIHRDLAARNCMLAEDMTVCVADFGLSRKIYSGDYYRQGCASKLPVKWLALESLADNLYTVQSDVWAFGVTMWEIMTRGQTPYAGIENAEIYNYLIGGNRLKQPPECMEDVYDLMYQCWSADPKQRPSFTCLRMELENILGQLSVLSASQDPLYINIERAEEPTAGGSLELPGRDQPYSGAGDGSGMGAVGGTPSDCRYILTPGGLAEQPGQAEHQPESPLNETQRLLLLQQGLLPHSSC

Snk(h), sequence (Q9NYY3 whole entry): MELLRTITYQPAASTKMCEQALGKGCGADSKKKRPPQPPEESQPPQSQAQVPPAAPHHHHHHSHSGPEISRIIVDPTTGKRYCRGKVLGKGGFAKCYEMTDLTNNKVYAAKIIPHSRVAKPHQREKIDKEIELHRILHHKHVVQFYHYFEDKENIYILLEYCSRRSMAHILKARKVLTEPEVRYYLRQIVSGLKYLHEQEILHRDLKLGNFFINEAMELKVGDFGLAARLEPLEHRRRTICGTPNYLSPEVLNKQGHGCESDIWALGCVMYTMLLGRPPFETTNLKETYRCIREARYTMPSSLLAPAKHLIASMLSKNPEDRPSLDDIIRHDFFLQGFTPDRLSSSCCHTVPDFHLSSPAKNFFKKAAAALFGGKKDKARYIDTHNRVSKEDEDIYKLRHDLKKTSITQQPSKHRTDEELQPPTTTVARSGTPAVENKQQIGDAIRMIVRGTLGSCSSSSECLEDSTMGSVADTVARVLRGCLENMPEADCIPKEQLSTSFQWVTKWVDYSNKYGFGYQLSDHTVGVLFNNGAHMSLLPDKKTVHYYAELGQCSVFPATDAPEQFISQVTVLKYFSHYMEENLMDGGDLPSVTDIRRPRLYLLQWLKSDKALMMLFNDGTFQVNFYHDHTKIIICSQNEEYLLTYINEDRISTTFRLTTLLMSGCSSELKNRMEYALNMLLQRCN
Ros(h), sequence (P08922 1883-2347 limits assumed): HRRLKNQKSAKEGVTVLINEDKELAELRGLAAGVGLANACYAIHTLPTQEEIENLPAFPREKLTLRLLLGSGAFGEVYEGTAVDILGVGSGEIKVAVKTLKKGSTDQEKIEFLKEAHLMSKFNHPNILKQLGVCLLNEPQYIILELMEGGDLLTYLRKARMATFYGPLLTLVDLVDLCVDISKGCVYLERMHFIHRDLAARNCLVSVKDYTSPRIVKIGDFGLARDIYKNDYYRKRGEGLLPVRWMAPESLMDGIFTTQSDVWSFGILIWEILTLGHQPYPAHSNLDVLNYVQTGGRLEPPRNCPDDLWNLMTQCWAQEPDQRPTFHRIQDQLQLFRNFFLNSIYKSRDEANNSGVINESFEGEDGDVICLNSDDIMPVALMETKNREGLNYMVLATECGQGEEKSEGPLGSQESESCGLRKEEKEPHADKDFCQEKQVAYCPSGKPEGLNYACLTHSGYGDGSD
mTOR(h), sequence (P42345 1362-2549 limits assumed): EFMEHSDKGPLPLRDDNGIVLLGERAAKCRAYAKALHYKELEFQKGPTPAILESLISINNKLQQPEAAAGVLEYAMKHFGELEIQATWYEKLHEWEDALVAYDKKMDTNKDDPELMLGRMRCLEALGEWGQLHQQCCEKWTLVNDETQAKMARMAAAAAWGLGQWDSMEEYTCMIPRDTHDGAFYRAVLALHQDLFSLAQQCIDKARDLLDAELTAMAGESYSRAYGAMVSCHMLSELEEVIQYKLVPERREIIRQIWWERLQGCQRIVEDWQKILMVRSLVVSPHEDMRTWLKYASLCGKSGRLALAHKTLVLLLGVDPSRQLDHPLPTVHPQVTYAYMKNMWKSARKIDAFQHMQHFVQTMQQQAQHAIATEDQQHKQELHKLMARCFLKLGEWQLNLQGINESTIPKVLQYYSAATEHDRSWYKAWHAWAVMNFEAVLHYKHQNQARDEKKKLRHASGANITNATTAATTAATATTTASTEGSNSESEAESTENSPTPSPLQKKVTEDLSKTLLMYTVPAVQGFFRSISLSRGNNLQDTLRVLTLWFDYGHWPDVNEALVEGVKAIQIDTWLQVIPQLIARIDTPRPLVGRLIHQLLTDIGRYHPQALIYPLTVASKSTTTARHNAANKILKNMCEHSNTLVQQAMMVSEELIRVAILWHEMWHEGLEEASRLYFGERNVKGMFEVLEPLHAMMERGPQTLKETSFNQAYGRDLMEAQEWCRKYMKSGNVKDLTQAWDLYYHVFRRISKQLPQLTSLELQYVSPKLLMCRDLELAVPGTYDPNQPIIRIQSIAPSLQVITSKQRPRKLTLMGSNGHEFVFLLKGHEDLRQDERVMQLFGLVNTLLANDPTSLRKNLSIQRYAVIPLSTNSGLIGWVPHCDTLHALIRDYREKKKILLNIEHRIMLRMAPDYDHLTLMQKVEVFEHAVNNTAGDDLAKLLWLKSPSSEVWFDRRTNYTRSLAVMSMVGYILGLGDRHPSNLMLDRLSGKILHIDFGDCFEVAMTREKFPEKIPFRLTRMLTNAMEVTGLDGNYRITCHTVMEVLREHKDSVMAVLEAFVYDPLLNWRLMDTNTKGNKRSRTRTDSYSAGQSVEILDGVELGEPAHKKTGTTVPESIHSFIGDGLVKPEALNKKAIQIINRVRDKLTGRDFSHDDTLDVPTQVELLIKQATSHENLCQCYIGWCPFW
mTOR/FKBP12(h), sequence (P42345 1362-2549 limits assumed, chain 1 of 2): as the sequence (P42345 1362-2549 limits assumed) above
mTOR/FKBP12(h), sequence (P62942 whole entry, chain 2 of 2): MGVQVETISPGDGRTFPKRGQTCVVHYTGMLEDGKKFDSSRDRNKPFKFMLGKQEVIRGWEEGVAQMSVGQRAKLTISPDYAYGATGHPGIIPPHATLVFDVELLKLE
Pim-1(h), sequence (P11309 whole entry): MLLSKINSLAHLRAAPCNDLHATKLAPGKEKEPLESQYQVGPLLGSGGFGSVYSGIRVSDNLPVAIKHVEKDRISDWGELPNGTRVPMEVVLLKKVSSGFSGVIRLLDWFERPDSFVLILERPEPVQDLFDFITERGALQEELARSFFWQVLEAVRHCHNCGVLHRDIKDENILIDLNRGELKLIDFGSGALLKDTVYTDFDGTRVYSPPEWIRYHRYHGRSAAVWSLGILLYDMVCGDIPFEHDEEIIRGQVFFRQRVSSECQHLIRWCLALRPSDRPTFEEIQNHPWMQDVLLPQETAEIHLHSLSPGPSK
PAK4(h), sequence (O96013 whole entry): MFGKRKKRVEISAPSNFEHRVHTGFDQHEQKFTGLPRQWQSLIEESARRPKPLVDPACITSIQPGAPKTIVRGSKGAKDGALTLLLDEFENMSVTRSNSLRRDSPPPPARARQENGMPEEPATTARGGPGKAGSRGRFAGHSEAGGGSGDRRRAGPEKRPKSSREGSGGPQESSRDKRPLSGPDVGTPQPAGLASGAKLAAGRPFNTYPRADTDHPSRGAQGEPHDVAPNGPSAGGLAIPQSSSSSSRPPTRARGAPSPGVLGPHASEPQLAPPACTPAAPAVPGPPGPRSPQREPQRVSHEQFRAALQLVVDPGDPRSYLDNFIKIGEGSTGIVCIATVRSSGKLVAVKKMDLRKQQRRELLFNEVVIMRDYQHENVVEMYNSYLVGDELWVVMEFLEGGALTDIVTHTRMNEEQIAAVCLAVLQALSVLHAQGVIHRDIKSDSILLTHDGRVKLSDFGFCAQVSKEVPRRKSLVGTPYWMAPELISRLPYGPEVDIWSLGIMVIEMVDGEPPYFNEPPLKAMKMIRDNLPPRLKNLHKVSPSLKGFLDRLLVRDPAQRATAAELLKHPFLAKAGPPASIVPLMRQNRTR
SIK(h), sequence (P57059 whole entry): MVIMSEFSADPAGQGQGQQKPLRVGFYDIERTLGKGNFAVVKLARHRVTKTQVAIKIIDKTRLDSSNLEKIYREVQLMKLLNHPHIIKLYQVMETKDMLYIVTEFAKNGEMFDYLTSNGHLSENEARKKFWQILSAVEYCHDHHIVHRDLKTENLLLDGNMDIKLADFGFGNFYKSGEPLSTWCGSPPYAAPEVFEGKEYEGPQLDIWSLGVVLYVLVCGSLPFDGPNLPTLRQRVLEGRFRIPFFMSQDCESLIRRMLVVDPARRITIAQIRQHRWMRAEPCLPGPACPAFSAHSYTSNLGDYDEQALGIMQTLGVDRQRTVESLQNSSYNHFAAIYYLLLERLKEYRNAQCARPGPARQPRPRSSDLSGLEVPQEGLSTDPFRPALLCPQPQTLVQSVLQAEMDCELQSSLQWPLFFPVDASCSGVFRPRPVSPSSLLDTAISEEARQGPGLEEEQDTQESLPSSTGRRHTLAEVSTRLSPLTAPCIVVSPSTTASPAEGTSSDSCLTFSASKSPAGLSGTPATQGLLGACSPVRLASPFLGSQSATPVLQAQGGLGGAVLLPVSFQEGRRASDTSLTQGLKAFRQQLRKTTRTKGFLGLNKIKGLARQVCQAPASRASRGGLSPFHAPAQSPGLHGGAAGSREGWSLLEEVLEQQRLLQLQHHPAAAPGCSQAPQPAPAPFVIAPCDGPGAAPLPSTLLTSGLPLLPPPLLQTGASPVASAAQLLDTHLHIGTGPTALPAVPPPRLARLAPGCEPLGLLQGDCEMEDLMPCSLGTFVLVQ
CK1γ2(h), sequence (P78368 whole entry): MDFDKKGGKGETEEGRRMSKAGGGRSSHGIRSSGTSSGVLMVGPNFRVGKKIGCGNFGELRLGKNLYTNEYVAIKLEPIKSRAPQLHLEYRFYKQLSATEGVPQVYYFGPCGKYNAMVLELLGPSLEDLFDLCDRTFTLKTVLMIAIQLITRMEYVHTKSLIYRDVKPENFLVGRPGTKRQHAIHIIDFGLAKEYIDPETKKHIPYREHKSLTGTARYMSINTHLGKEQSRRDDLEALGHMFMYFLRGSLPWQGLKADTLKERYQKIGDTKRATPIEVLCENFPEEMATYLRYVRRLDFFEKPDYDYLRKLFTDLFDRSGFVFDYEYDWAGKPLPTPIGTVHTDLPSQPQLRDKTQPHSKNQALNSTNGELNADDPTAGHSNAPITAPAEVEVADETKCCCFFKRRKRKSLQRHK
FGFR4(h), sequence (P22455 460-802 limits assumed): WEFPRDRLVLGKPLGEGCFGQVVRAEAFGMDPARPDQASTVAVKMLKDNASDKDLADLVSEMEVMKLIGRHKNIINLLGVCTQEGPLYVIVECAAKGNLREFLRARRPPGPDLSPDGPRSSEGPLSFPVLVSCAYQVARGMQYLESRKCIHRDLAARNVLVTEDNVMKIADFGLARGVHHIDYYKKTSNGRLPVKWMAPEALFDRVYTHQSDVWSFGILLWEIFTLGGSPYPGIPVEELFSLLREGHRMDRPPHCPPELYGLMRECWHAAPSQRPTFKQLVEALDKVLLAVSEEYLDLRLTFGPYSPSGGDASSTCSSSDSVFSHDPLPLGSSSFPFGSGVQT

As to FAKLAARLYRKALARQLGVAA [MMI-0300], the “% activity, 100 µM” value stood at 70% with GCK(h); 117% with Met(Y1248H)(h); 48% in the test with MINK(h); 91% with mTOR(h); 145% with mTOR/FKBP12(h); 94% with PAK4(h). For the same molecule, the “% activity, 100 µM” value with PDGFRα(V561D)(h) stood at 82%; with Pim-1(h), 8%; in the test with PKCα(h) it was 89%; with Axl(h) it was 52%; with Ros(h) it was 95%; in the test with Rse(h), 88%. Besides, the “% activity, 100 µM” value with BRK(h) worked out at 35%; in the test with SIK(h), 66%; with Snk(h), 114%; with CK1γ2(h), 123%; with Abl(h), 69%; with FGFR4(h), 28%.

For KAFAKLAARLYRKALARQLGVAA [MMI-0400], the “% activity, 100 µM” value with GCK(h) is 66%; with Met(Y1248H)(h) it was 63%; with MINK(h) it was 52%; with mTOR(h), 93%; with mTOR/FKBP12(h) it was 125%; with PAK4(h) it was 89%. Further, the “% activity, 100 µM” value was 100% in the test with PDGFRα(V561D)(h); 7% in the test with Pim-1(h); 86% with PKCα(h); 41% in the test with Axl(h); 99% in the test with Ros(h); 89% with Rse(h). In addition, the “% activity, 100 µM” value worked out at 18% in the test with BRK(h); 68% with SIK(h); 131% with Snk(h); 114% with CK1γ2(h); 84% with Abl(h); 19% with FGFR4(h).
